Results published in patent publication US20240132578A1.

How the values were obtained:
Assay in all cases: cell-based or functional assay
[1] = molecular target: HIV-1 Env of isolate MG RM-A-012 (pseudovirus) (HIV-1)
[2] = molecular target: HIV-1 Env of isolate MG RM-A-011 (pseudovirus) (HIV-1)
[3] = molecular target: HIV-1 Env of isolate MGRM-G-028 (subtype G) (HIV-1)
[4] = molecular target: HIV-1 Env of pseudovirus isolate MGRM-Chronic-B-002 (clade B) (HIV-1)
[5] = molecular target: HIV-1 Env of isolate MGRM-G-027 (subtype G) (HIV-1)
[6] = molecular target: HIV-1 Env of isolate MGRM-AE-003 (pseudovirus) (HIV-1)
[7] = molecular target: HIV-1 Env of isolate 98CN006 (HIV-1)
[8] = molecular target: HIV-1 Env of pseudovirus isolate 93TH305 (clade B) (HIV-1)
[9] = molecular target: HIV-1 Env of isolate MGRM-G-015 (subtype G) (HIV-1)
[10] = molecular target: HIV-1 Env of pseudovirus MGRM-D-019 (HIV-1)
[11] = molecular target: HIV-1 Env of pseudovirus isolate MGRM-C-020 (clade C) (HIV-1)
[12] = molecular target: HIV-1 Env of pseudovirus isolate MGRM-C-007 (clade C) (HIV-1)
[13] = molecular target: HIV-1 JR-CSF Env I424A (HIV-1 (isolate JR-CSF)) (UniProt P20871)
[14] = molecular target: HIV-1 Env of isolate MGRM-F1-006 (HIV-1)
[15] = molecular target: HIV-1 MGRM-D-001 envelope protein (Env) on pseudovirus (HIV-1)
[16] = molecular target: HIV-1 Env of isolate MGRM-D-026 (HIV-1)
[17] = molecular target: HIV-1 Env of isolate MGRM-AE-008 (subtype AE) (HIV-1)
[18] = molecular target: HIV-1 Env of isolate MGRM-A-006 (pseudovirus) (HIV-1)
[19] = molecular target: HIV-1 JR-CSF Env Q422A (HIV-1 (isolate JR-CSF)) (UniProt P20871)
[20] = molecular target: HIV-1 Env of isolate MGRM-F1-022 (HIV-1)

Chain of 4995_P16 (PGT-145) (antibody) (VH): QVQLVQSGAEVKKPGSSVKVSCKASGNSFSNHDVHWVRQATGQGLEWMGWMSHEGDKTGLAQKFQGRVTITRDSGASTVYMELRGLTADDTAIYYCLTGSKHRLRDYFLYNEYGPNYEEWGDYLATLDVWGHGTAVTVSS
Chain of 4995_P16 (PGT-145) (antibody) (VL): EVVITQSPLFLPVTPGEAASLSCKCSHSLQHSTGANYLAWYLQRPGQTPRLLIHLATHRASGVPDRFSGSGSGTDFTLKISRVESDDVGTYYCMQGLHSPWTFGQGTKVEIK
Chain of 4993_K13 (PGT-141) (antibody) (VH): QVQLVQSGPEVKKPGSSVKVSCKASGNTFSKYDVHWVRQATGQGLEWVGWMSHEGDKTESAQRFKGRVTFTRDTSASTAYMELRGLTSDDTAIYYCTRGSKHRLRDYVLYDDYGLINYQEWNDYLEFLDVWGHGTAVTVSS
Chain of 4993_K13 (PGT-141) (antibody) (VL): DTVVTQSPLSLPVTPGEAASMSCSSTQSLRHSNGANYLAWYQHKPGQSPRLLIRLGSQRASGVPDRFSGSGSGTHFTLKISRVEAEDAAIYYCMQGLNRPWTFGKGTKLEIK
Chain of 4970_K22 (PGT-144) (antibody) (VH): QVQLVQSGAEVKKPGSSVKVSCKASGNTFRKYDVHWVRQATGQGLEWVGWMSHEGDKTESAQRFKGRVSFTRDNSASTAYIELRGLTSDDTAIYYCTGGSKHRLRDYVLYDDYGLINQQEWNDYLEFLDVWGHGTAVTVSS
Chain of 4970_K22 (PGT-144) (antibody) (VL): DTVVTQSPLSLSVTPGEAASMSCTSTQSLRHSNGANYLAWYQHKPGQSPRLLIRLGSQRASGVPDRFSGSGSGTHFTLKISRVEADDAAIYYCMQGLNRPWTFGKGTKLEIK
Chain of 4980_N08 (PGT-143) (antibody) (VH): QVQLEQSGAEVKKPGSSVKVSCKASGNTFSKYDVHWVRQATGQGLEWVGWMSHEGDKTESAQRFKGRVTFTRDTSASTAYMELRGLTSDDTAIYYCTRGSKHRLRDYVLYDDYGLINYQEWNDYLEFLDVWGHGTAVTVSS
Chain of 4980_N08 (PGT-143) (antibody) (VL): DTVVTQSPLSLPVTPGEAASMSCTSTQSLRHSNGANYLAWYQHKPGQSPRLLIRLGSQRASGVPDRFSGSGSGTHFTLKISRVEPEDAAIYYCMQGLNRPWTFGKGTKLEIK
Chain of 4995_E20 (PGT-142) (antibody) (VH): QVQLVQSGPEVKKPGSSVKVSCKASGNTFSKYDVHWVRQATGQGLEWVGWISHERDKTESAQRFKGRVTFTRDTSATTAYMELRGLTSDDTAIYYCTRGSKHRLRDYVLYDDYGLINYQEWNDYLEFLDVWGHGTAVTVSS

Substance	IC50 (µg/mL), single-round pseudovirus neutralization [1]	IC50 (µg/mL), single-round pseudovirus neutralization [2]	IC50 (µg/mL), pseudovirus neutralization [3]	IC50, pseudovirus neutralization [4]	IC50 (µg/mL), pseudovirus neutralization [5]	IC50 (µg/mL), single-round pseudovirus neutralization [6]	IC50 (µg/mL), pseudovirus neutralization [7]	IC50, pseudovirus neutralization [8]	IC50 (µg/mL), pseudovirus neutralization [9]	IC50, pseudovirus neutralization [10]	IC50, pseudovirus neutralization [11]	IC50, pseudovirus neutralization [12]	IC50 (µg/mL), pseudovirus neutralization [14]	IC50 (µg/mL), pseudovirus neutralization [16]	IC50, pseudovirus neutralization [17]	IC50 (µg/mL), pseudovirus neutralization [18]	IC50 (µg/mL), pseudovirus neutralization [20]	other results
4980_N08 (PGT-143) (antibody)	> 50 µg/mL	> 50 µg/mL	43 µg/mL	> 50 µg/mL	> 50 µg/mL	> 50 µg/mL	> 50 µg/mL	17.3 µg/mL	> 50 µg/mL	–	–	–	–	–	–	–	–	–
VRC01 (antibody)	> 50 µg/mL	0.273 µg/mL	0.164 µg/mL	0.117 µg/mL	0.36 µg/mL	0.685 µg/mL	0.644 µg/mL	0.243 µg/mL	0.548 µg/mL	0.119 µg/mL	–	–	–	–	–	–	–	–
4970_K22 (PGT-144) (antibody)	> 50 µg/mL	> 50 µg/mL	> 50 µg/mL	> 50 µg/mL	> 50 µg/mL	> 50 µg/mL	> 50 µg/mL	> 50 µg/mL	> 50 µg/mL	–	–	–	–	–	–	–	–	–
PGT-143 (4980_N08) (antibody)	–	–	–	–	–	–	–	–	–	0.277 µg/mL	–	–	–	–	–	–	–	–
5147_N06 (PGT-130) (antibody)	–	–	–	–	–	–	–	–	–	–	> 50 µg/mL	> 50 µg/mL	> 50 µg/mL	> 50 µg/mL	> 50 µg/mL	> 50 µg/mL	> 50 µg/mL	Fold IC50 increase relative to wild-type (pseudovirus neutralization) [13]: 3.9 fold; IC50 (ug/mL), pseudovirus neutralization [15]: > 10 µg/mL; Fold IC50 increase relative to wild-type (pseudovirus neutralization) [19]: 1 fold
PGT-144 (4970_K22) (antibody)	–	–	–	–	–	–	–	–	–	> 50 µg/mL	–	–	–	–	–	–	–	–
5345_I01 (PGT-137) (antibody)	–	–	–	–	–	–	–	–	–	–	> 50 µg/mL	> 50 µg/mL	> 50 µg/mL	> 50 µg/mL	> 50 µg/mL	> 50 µg/mL	6.23 µg/mL	–
5114_A19 (PGT-128) (antibody)	–	–	–	–	–	–	–	–	–	–	5.85 µg/mL	0.111 µg/mL	0.763 µg/mL	> 50 µg/mL	> 50 µg/mL	> 50 µg/mL	4.54 µg/mL	Fold IC50 increase relative to wild-type (pseudovirus neutralization) [13]: 1.3 fold; Fold IC50 increase relative to wild-type (pseudovirus neutralization) [19]: 0.2 fold
4993_K13 (PGT-141) (antibody)	> 50 µg/mL	> 50 µg/mL	24.9 µg/mL	> 50 µg/mL	> 50 µg/mL	> 50 µg/mL	> 50 µg/mL	> 50 µg/mL	> 50 µg/mL	–	–	–	–	–	–	–	–	–
5329_C19 (PGT-136) (antibody)	–	–	–	–	–	–	–	–	–	–	> 50 µg/mL	> 50 µg/mL	> 50 µg/mL	> 50 µg/mL	> 50 µg/mL	> 50 µg/mL	2.42 µg/mL	IC50 (ug/mL), pseudovirus neutralization [15]: > 10 µg/mL
4995_P16 (PGT-145) (antibody)	0.23 µg/mL	0.484 µg/mL	0.046 µg/mL	3.67 µg/mL	0.433 µg/mL	0.552 µg/mL	> 50 µg/mL	0.032 µg/mL	10.5 µg/mL	–	–	–	–	–	–	–	–	–
PGT-141 (4964_G22; 4993_K13) (antibody)	–	–	–	–	–	–	–	–	–	1.66 µg/mL	–	–	–	–	–	–	–	–
5136_H01 (PGT-131) (antibody)	–	–	–	–	–	–	–	–	–	–	> 50 µg/mL	> 50 µg/mL	> 50 µg/mL	> 50 µg/mL	> 50 µg/mL	> 50 µg/mL	> 50 µg/mL	Fold IC50 increase relative to wild-type (pseudovirus neutralization) [13]: 4.8 fold; Fold IC50 increase relative to wild-type (pseudovirus neutralization) [19]: 1.9 fold
PGT-145 (4995_P16) (antibody)	–	–	–	–	–	–	–	–	–	0.111 µg/mL	–	–	–	–	–	–	–	–
PGT-142 (4995_E20) (antibody)	–	–	–	–	–	–	–	–	–	0.155 µg/mL	–	–	–	–	–	–	–	–
5343_B08 (PGT-135) (antibody)	–	–	–	–	–	–	–	–	–	–	> 50 µg/mL	> 50 µg/mL	> 50 µg/mL	> 50 µg/mL	> 50 µg/mL	> 50 µg/mL	0.964 µg/mL	Fold IC50 increase relative to wild-type (pseudovirus neutralization) [13]: 0.1 fold; IC50 (ug/mL), pseudovirus neutralization [15]: > 10 µg/mL; Fold IC50 increase relative to wild-type (pseudovirus neutralization) [19]: 0.8 fold
4995_E20 (PGT-142) (antibody)	> 50 µg/mL	> 50 µg/mL	30.3 µg/mL	> 50 µg/mL	> 50 µg/mL	> 50 µg/mL	> 50 µg/mL	5.86 µg/mL	> 50 µg/mL	–	–	–	–	–	–	–	–	–
